Source: patent publication US20120135923A1 (IPSEN PHARMA S A S, published 2012)
Bridge positions count the residues as written; N and C are the ends. Square brackets hold non-standard residues; d marks the D form. Ends that are not written are not given here. 1Nal = N[C@@H](Cc1cccc2ccccc12)C(=O)O; 2Nal = N[C@@H](Cc1ccc2ccccc2c1)C(=O)O; d2Nal = N[C@H](Cc1ccc2ccccc2c1)C(=O)O; Bta = N[C@@H](Cc1csc2ccccc12)C(=O)O; Aic = NC1(C(=O)O)Cc2ccccc2C1; Aib = CC(C)(N)C(=O)O; βAla = NCCC(=O)O

B1: Ac-c(Cys-Glu-His-D-2-Nal-Arg-1-Nal-Ala-Cys)-Pro-Pro-Lys-Asp-β-Ala-Tyr-Gly-Arg-Lys-Lys-Arg-Arg-Gln-Arg-Arg-Arg-NH2 (peptide)
peptide: CEHXRXACPPKDXYGRKKRRQRRR
modifications: N-terminal Ac; D-2-Nal at 4; 1-Nal at 6; β-Ala at 13; disulfide Cys1-Cys8; C-terminal NH2
B2: Ac-c(Cys-Glu-His-D-2-Nal-Arg-Bal-Ala-Cys)-Pro-Pro-Lys-Asp-β-Ala-Tyr-Aib-Arg-Lys-Lys-Arg-Arg-Gln-Arg-Arg-Arg-NH2 (peptide)
peptide: Ac-CEH[d2Nal]R[Bta]ACPPKD[βAla]Y[Aib]RKKRRQRRR-NH2
modifications: disulfide 1-8
SMILES: CC(=O)N[C@H]1CSSC[C@@H](C(=O)N2CCC[C@H]2C(=O)N2CCC[C@H]2C(=O)N[C@@H](CCCCN)C(=O)N[C@@H](CC(=O)O)C(=O)NCCC(=O)N[C@@H](Cc2ccc(O)cc2)C(=O)NC(C)(C)C(=O)N[C@@H](CCCNC(=N)N)C(=O)N[C@@H](CCCCN)C(=O)N[C@@H](CCCCN)C(=O)N[C@@H](CCCNC(=N)N)C(=O)N[C@@H](CCCNC(=N)N)C(=O)N[C@@H](CCC(N)=O)C(=O)N[C@@H](CCCNC(=N)N)C(=O)N[C@@H](CCCNC(=N)N)C(=O)N[C@@H](CCCNC(=N)N)C(N)=O)NC(=O)[C@H](C)NC(=O)[C@H](Cc2csc3ccccc23)NC(=O)[C@H](CCCNC(=N)N)NC(=O)[C@@H](Cc2ccc3ccccc3c2)NC(=O)[C@H](Cc2c[nH]cn2)NC(=O)[C@H](CCC(=O)O)NC1=O
B3: Ac-c(Cys-Glu-His-D-2-Nal-Arg-1-Nal-Ala-Cys)-Pro-Pro-Lys-Asp-β-[…]NH2 (peptide)
peptide: Ac-CEH[d2Nal]R[1Nal]ACPPKD[βAla]GRRKRRQRRR-NH2
modifications: disulfide 1-8
SMILES: CC(=O)N[C@H]1CSSC[C@@H](C(=O)N2CCC[C@H]2C(=O)N2CCC[C@H]2C(=O)N[C@@H](CCCCN)C(=O)N[C@@H](CC(=O)O)C(=O)NCCC(=O)NCC(=O)N[C@@H](CCCNC(=N)N)C(=O)N[C@@H](CCCNC(=N)N)C(=O)N[C@@H](CCCCN)C(=O)N[C@@H](CCCNC(=N)N)C(=O)N[C@@H](CCCNC(=N)N)C(=O)N[C@@H](CCC(N)=O)C(=O)N[C@@H](CCCNC(=N)N)C(=O)N[C@@H](CCCNC(=N)N)C(=O)N[C@@H](CCCNC(=N)N)C(N)=O)NC(=O)[C@H](C)NC(=O)[C@H](Cc2cccc3ccccc23)NC(=O)[C@H](CCCNC(=N)N)NC(=O)[C@@H](Cc2ccc3ccccc3c2)NC(=O)[C@H](Cc2c[nH]cn2)NC(=O)[C@H](CCC(=O)O)NC1=O
B4: Ac-c(Cys-Glu-His-D-2-Nal-Arg-2-Nal-Ala-Cys)-Pro-Pro-Lys-Asp-β-[…]NH2 (peptide)
peptide: Ac-CEH[d2Nal]R[2Nal]ACPPKD[βAla]GRRKRRQRRR-NH2
modifications: disulfide 1-8
SMILES: CC(=O)N[C@H]1CSSC[C@@H](C(=O)N2CCC[C@H]2C(=O)N2CCC[C@H]2C(=O)N[C@@H](CCCCN)C(=O)N[C@@H](CC(=O)O)C(=O)NCCC(=O)NCC(=O)N[C@@H](CCCNC(=N)N)C(=O)N[C@@H](CCCNC(=N)N)C(=O)N[C@@H](CCCCN)C(=O)N[C@@H](CCCNC(=N)N)C(=O)N[C@@H](CCCNC(=N)N)C(=O)N[C@@H](CCC(N)=O)C(=O)N[C@@H](CCCNC(=N)N)C(=O)N[C@@H](CCCNC(=N)N)C(=O)N[C@@H](CCCNC(=N)N)C(N)=O)NC(=O)[C@H](C)NC(=O)[C@H](Cc2ccc3ccccc3c2)NC(=O)[C@H](CCCNC(=N)N)NC(=O)[C@@H](Cc2ccc3ccccc3c2)NC(=O)[C@H](Cc2c[nH]cn2)NC(=O)[C@H](CCC(=O)O)NC1=O
B5: Ac-c(Cys-Glu-His-D-2-Nal-Arg-Bal-Ala-Cys)-Pro-Pro-Arg-Asp-β-[…]NH2 (peptide)
peptide: Ac-CEH[d2Nal]R[Bta]ACPPRD[βAla]RRRRRRQRRR-NH2
modifications: disulfide 1-8
SMILES: CC(=O)N[C@H]1CSSC[C@@H](C(=O)N2CCC[C@H]2C(=O)N2CCC[C@H]2C(=O)N[C@@H](CCCNC(=N)N)C(=O)N[C@@H](CC(=O)O)C(=O)NCCC(=O)N[C@@H](CCCNC(=N)N)C(=O)N[C@@H](CCCNC(=N)N)C(=O)N[C@@H](CCCNC(=N)N)C(=O)N[C@@H](CCCNC(=N)N)C(=O)N[C@@H](CCCNC(=N)N)C(=O)N[C@@H](CCCNC(=N)N)C(=O)N[C@@H](CCC(N)=O)C(=O)N[C@@H](CCCNC(=N)N)C(=O)N[C@@H](CCCNC(=N)N)C(=O)N[C@@H](CCCNC(=N)N)C(N)=O)NC(=O)[C@H](C)NC(=O)[C@H](Cc2csc3ccccc23)NC(=O)[C@H](CCCNC(=N)N)NC(=O)[C@@H](Cc2ccc3ccccc3c2)NC(=O)[C@H](Cc2c[nH]cn2)NC(=O)[C@H](CCC(=O)O)NC1=O
B6: Ac-c(Cys-Glu-His-D-2-Nal-Arg-Bal-Ala-Cys)-Pro-Pro-Lys-Asp-β-[…]NH2 (peptide)
peptide: Ac-CEH[d2Nal]R[Bta]ACPPKD[βAla]GRRKRRQRRR-NH2
modifications: disulfide 1-8
SMILES: CC(=O)N[C@H]1CSSC[C@@H](C(=O)N2CCC[C@H]2C(=O)N2CCC[C@H]2C(=O)N[C@@H](CCCCN)C(=O)N[C@@H](CC(=O)O)C(=O)NCCC(=O)NCC(=O)N[C@@H](CCCNC(=N)N)C(=O)N[C@@H](CCCNC(=N)N)C(=O)N[C@@H](CCCCN)C(=O)N[C@@H](CCCNC(=N)N)C(=O)N[C@@H](CCCNC(=N)N)C(=O)N[C@@H](CCC(N)=O)C(=O)N[C@@H](CCCNC(=N)N)C(=O)N[C@@H](CCCNC(=N)N)C(=O)N[C@@H](CCCNC(=N)N)C(N)=O)NC(=O)[C@H](C)NC(=O)[C@H](Cc2csc3ccccc23)NC(=O)[C@H](CCCNC(=N)N)NC(=O)[C@@H](Cc2ccc3ccccc3c2)NC(=O)[C@H](Cc2c[nH]cn2)NC(=O)[C@H](CCC(=O)O)NC1=O
B7: Ac-c(Cys-Glu-His-D-2-Nal-Arg-Bal-Ala-Cys)-Pro-Pro-Lys-Asp-β-[…]NH2 (peptide)
peptide: Ac-CEH[d2Nal]R[Bta]ACPPKD[βAla]GRKRRRQRRR-NH2
modifications: disulfide 1-8
SMILES: CC(=O)N[C@H]1CSSC[C@@H](C(=O)N2CCC[C@H]2C(=O)N2CCC[C@H]2C(=O)N[C@@H](CCCCN)C(=O)N[C@@H](CC(=O)O)C(=O)NCCC(=O)NCC(=O)N[C@@H](CCCNC(=N)N)C(=O)N[C@@H](CCCCN)C(=O)N[C@@H](CCCNC(=N)N)C(=O)N[C@@H](CCCNC(=N)N)C(=O)N[C@@H](CCCNC(=N)N)C(=O)N[C@@H](CCC(N)=O)C(=O)N[C@@H](CCCNC(=N)N)C(=O)N[C@@H](CCCNC(=N)N)C(=O)N[C@@H](CCCNC(=N)N)C(N)=O)NC(=O)[C@H](C)NC(=O)[C@H](Cc2csc3ccccc23)NC(=O)[C@H](CCCNC(=N)N)NC(=O)[C@@H](Cc2ccc3ccccc3c2)NC(=O)[C@H](Cc2c[nH]cn2)NC(=O)[C@H](CCC(=O)O)NC1=O
B8: Ac-c(Cys-Glu-His-D-2-Nal-Arg-1-Nal-Ala-Cys)-Pro-Pro-Lys-Asp-β-[…]NH2 (peptide)
peptide: Ac-CEH[d2Nal]R[1Nal]ACPPKD[βAla]GRKRRRQRRR-NH2
modifications: disulfide 1-8
SMILES: CC(=O)N[C@H]1CSSC[C@@H](C(=O)N2CCC[C@H]2C(=O)N2CCC[C@H]2C(=O)N[C@@H](CCCCN)C(=O)N[C@@H](CC(=O)O)C(=O)NCCC(=O)NCC(=O)N[C@@H](CCCNC(=N)N)C(=O)N[C@@H](CCCCN)C(=O)N[C@@H](CCCNC(=N)N)C(=O)N[C@@H](CCCNC(=N)N)C(=O)N[C@@H](CCCNC(=N)N)C(=O)N[C@@H](CCC(N)=O)C(=O)N[C@@H](CCCNC(=N)N)C(=O)N[C@@H](CCCNC(=N)N)C(=O)N[C@@H](CCCNC(=N)N)C(N)=O)NC(=O)[C@H](C)NC(=O)[C@H](Cc2cccc3ccccc23)NC(=O)[C@H](CCCNC(=N)N)NC(=O)[C@@H](Cc2ccc3ccccc3c2)NC(=O)[C@H](Cc2c[nH]cn2)NC(=O)[C@H](CCC(=O)O)NC1=O
B9: Ac-Nle-c(Cys-D-Ala-His-D-Phe-Arg-Trp-Cys)-(Doc)2-Tyr-Gly-Arg-Lys-Lys-Arg-Arg-Gln-Arg-Arg-Arg-NH2 (peptide)
peptide: XCAHFRWCXXYGRKKRRQRRR
modifications: N-terminal Ac; Nle at 1; D-Ala at 3; D-Phe at 5; Doc at 9 and 10; disulfide Cys2-Cys8; C-terminal NH2
B10: Ac-c(Cys-Glu-His-D-2-Nal-Arg-Bal-Ala-Cys)-Pro-Pro-Lys-Asp-β-Ala-Tyr-Gly-Arg-Lys-Lys-Arg-Arg-Gln-Arg-Arg-Arg-NH2 (peptide)
peptide: CEHXRXACPPKDXYGRKKRRQRRR
modifications: N-terminal Ac; D-2-Nal at 4; Bal at 6; β-Ala at 13; disulfide Cys1-Cys8; C-terminal NH2
B11: c[Hydantoin(C(O)-(Asp-Aic))-D-2-Nal-Arg-Trp-Lys]-NH2 (peptide)
peptide: D[Aic][d2Nal]RWK-NH2
modifications: lactam 1-6; also: hydantoin ring: N-terminal N of Asp1 and backbone N of residue 2 bridged by one C(O), bridge at N via C(O), other end not in the chain

The binders below were run against T1, human melanocortin receptor subtype 1 (hMC1-R) (human, UniProt Q01726 1-317) (assay: [125I]-NDP-α-MSH competition, membranes).
T1 construct: whole, on cells; membranes of CHO-K1 cells
T1 sequence (Q01726 whole entry): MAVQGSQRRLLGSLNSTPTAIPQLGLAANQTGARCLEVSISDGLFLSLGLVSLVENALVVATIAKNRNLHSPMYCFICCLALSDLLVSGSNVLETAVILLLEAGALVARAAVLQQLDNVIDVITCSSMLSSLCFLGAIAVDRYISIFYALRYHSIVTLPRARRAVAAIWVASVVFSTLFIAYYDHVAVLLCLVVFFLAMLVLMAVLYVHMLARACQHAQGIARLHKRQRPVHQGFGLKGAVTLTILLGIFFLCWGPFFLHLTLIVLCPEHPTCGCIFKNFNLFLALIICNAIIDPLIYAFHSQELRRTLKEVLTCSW

Binder | Ki
B1 | 4.59 nM
B2 | 7.84 nM
Ac-CEH[d2Nal]R[1Nal]ACPPKD[βAla]RRRRRQRRR-NH2 (disulfide 1-8) | 2.42 nM
B3 | 1.81 nM
B4 | 2.71 nM
B5 | 7.32 nM
Ac-CEH[d2Nal]R[Bta]ACPPKD[βAla]RRRRRRQRRR-NH2 (disulfide 1-8) | 6.77 nM
B6 | 2.5 nM
B7 | 4.29 nM
B8 | 2.69 nM
B9 | 0.211 nM
B10 | 6.46 nM
B11 | 9030 nM

The binders below were run against T2, human melanocortin receptor subtype 3 (hMC3-R) (human, UniProt P41968 1-323) (assay: [125I]-NDP-α-MSH competition, membranes).
T2 construct: whole, on cells; membranes of CHO-K1 cells
T2 sequence (P41968 whole entry): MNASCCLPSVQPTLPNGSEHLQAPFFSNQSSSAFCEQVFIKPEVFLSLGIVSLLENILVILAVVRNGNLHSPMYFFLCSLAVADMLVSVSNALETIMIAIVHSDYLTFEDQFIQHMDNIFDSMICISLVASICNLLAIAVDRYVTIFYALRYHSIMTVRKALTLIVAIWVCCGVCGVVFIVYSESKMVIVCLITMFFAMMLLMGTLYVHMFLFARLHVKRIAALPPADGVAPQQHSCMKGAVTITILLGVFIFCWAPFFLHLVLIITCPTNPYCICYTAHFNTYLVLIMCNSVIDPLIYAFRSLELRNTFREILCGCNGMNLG

Binder | Ki
B1 | 6.28 nM
B2 | 10.2 nM
Ac-CEH[d2Nal]R[1Nal]ACPPKD[βAla]RRRRRQRRR-NH2 (disulfide 1-8) | 6.56 nM
B3 | 2.08 nM
B4 | 0.732 nM
B5 | 11 nM
Ac-CEH[d2Nal]R[Bta]ACPPKD[βAla]RRRRRRQRRR-NH2 (disulfide 1-8) | 14.3 nM
B6 | 1.59 nM
B7 | 2.15 nM
B8 | 2.59 nM
B9 | 0.665 nM
B10 | 5.22 nM
B11 | 2630 nM

These binders were tested against T3, human melanocortin receptor subtype 4 (hMC4-R) (human, UniProt P32245 1-332) (assay: [125I]-NDP-α-MSH competition, membranes).
T3 construct: whole, on cells; membranes of CHO-K1 cells
T3 sequence (P32245 whole entry): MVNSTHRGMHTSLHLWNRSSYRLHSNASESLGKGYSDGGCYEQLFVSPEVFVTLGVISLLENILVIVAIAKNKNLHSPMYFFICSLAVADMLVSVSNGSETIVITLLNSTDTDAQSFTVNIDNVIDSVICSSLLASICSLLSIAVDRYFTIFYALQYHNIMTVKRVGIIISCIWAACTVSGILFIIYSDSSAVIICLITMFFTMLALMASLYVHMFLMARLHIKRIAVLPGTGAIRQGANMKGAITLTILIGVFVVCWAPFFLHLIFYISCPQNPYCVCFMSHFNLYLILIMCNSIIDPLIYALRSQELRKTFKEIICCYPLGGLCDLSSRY

Binder | Ki
B1 | 0.588 nM
B2 | 0.783 nM
Ac-CEH[d2Nal]R[1Nal]ACPPKD[βAla]RRRRRQRRR-NH2 (disulfide 1-8) | 0.238 nM
B3 | 0.305 nM
B4 | 0.202 nM
B5 | 0.659 nM
Ac-CEH[d2Nal]R[Bta]ACPPKD[βAla]RRRRRRQRRR-NH2 (disulfide 1-8) | 0.781 nM
B6 | 0.573 nM
B7 | 0.425 nM
B8 | 0.243 nM
B9 | 0.635 nM
B10 | 0.38 nM
B11 | 35.8 nM

Each binder was assayed against T4, human melanocortin receptor subtype 5 (hMC5-R) (human, UniProt P33032 1-325) (assay: [125I]-NDP-α-MSH competition, membranes).
T4 construct: whole, on cells; membranes of CHO-K1 cells
T4 sequence (P33032 whole entry): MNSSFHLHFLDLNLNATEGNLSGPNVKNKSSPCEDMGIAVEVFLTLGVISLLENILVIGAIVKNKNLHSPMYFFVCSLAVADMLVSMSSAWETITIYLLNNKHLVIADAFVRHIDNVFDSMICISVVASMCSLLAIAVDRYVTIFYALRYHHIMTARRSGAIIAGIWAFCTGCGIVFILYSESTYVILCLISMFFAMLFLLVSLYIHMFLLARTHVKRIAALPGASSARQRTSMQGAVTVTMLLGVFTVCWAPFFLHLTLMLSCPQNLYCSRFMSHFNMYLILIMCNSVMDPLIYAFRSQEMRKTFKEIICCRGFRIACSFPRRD

Binder | Ki
B1 | 22.6 nM
B2 | 91.8 nM
Ac-CEH[d2Nal]R[1Nal]ACPPKD[βAla]RRRRRQRRR-NH2 (disulfide 1-8) | 41.7 nM
B3 | 19.3 nM
B4 | 5.53 nM
B5 | 78 nM
Ac-CEH[d2Nal]R[Bta]ACPPKD[βAla]RRRRRRQRRR-NH2 (disulfide 1-8) | 84 nM
B6 | 15.7 nM
B7 | 15.5 nM
B8 | 19.2 nM
B9 | 118 nM
B10 | 15.3 nM
B11 | 1160 nM
